According to PMC11191739, “Structural Flexibility and Disassembly Kinetics of Single Ferritin Molecules Using Optical Nanotweezers” (ACS Nano, 2024):

Molecular target: the molecule itself
Assay: mass photometry; 50 nM ferritin at pH 2, measured at 1, 3 and 60 min, TwoMP mass photometer

B1: holo-ferritin (derived from equine spleen, F4503) (natural protein)
chain 1: MSSQIRQNYSTEVEAAVNRLVNLYLRASYTYLSLGFYFDRDDVALEGVCHFFRELAEEKREGAERLLKMQNQRGGRALFQDLQKPSQDEWGTTLDAMKAAIVLEKSLNQALLDLHALGSAQADPHLCDFLESHFLDEEVKLIKKMGDHLTNIQRLVGSQAGLGEYLFERLTLKHD
chain 2: MTTAFPSQVRQNYHQDSEAAINRQINLELHASYVYLSMSFYFDRDDVALKNFAKYFLHQSHEEREHAEKLMKLQNQRGGRIFLQDIKKPDQDDWENGLKAMECALHLEKNVNESLLELHKLATDKNDPHLCDFLETHYLNEQVKAIKELGDHVTNLRRMGAPESGMAEYLFDKHTLGECDES
notes: ferritin light (L) chain, equine spleen; ferritin heavy (H) chain, equine spleen; It carries a ferrihydrite iron core; Rows of m1 with itself describe the self-association of the subunits; also called equine spleen ferritin; source: bought: Sigma-Aldrich (F4503), derived from equine spleen
- stoichiometry N: 18
